Measured values: publication PMC2241918
Where two headings read alike, the source gives them in different places. Each block holds one molecule with its values, some of them ahead of it.

Tests used:
[1] = target: Cfr42I restriction endonuclease (Citrobacter freundii RFL42); test: AUC
[2] = target: T1, Cfr42I restriction endonuclease (Citrobacter freundii RFL42, UniProt B0LL99 1-216); test: EMSA
T1 sequence: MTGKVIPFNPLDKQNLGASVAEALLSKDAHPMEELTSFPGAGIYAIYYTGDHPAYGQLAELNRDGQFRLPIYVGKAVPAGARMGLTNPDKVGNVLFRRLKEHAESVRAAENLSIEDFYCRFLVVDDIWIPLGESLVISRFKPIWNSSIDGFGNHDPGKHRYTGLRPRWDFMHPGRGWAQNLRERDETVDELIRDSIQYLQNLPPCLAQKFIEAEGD

[3] = target: T1, Cfr42I restriction endonuclease; test: EMSA; remark: listed apart in the source

stoichiometry N [1]: 4
Molecule: Cfr42I restriction endonuclease (enzyme)

B1: 16/16 (dsDNA)
DNA 1: CGCCACCGCGGTGGCG
DNA 2: CGCCACCGCGGTGGCG
binding result [2]: binds

B2: 30/30 (dsDNA)
DNA 1: AGACCCACGCCACCGCGGTGGAGATTACGG
DNA 2: CCGTAATCTCCACCGCGGTGGCGTGGGTCT
binding result [3]: binds
